“And” between values parts separate entries of the source, which are not always exact repeats. Equal values may be shown once.
Target: T1, human epidermal growth factor receptor (EGFR) (Homo sapiens, UniProt P00533)
T1 construct: human epidermal growth factor receptor, used as a 'monovalent antigen' in solution
Assay: SPR; ProteOn XPR36 one-shot kinetics; antibodies amine-coupled onto GLC chips, EGFR injected as monovalent analyte for 3 min (5fold and 3fold series, top 56 nM; over matuzumab 3fold series, top 278 nM); 25°C, PBS + 0.01% Tween-20; global Langmuir model with mass transport; apparent
Details: both partners purified

Binder	Kd	koff	kon
duligotuzumab (DL11) Fab fragment (Fab, V domains shown, Fab heavy chain of duligotuzumab; light chain of duligotuzumab; source: Expi293 transient expression, co-transfection of heavy and light chain vectors, purified (IMAC, Ni Sepharose Excel)) VH: EVQLVESGGGLVQPGGSLRLSCAASGFTLSGDWIHWVRQAPGKGLEWLGEISAAGGYTDYADSVKGRFTISADTSKNTAYLQMNSLRAEDTAVYYCARESRVSFEAAMDYWGQGTLVTVSS VL: DIQMTQSPSSLSASVGDRVTITCRASQDLATDVAWYQQKPGKAPKLLIYSASFLYSGVPSRFSGSGSGTDFTLTISSLQPEDFATYYCQQSEPEPYTFGQGTKVEIK	1.9 nM and 1.7 nM	0.0035 s⁻¹ and 0.003 s⁻¹	1.9e+06 M⁻¹ s⁻¹ and 1.8e+06 M⁻¹ s⁻¹
necitumumab (IMC-11F8) Fab fragment (Fab, V domains shown, Fab heavy chain of necitumumab; light chain of necitumumab; source: Expi293 transient expression, co-transfection of heavy and light chain vectors, purified (IMAC, Ni Sepharose Excel)) VH: QVQLQESGPGLVKPSQTLSLTCTVSGGSISSGDYYWSWIRQPPGKGLEWIGYIYYSGSTDYNPSLKSRVTMSVDTSKNQFSLKVNSVTAADTAVYYCARVSIFGVGTFDYWGQGTLVTVSS VL: EIVMTQSPATLSLSPGERATLSCRASQSVSSYLAWYQQKPGQAPRLLIYDASNRATGIPARFSGSGSGTDFTLTISSLEPEDFAVYYCHQYGSTPLTFGGGTKAEIK	1.5 nM and 1.6 nM	0.0036 s⁻¹ and 0.0059 s⁻¹	3.9e+06 M⁻¹ s⁻¹ and 2.2e+06 M⁻¹ s⁻¹
matuzumab Fab fragment (Fab, V domains shown, Fab heavy chain of matuzumab; light chain of matuzumab; source: Expi293 transient expression, co-transfection of heavy and light chain vectors, purified (IMAC, Ni Sepharose Excel)) VH: QVQLVQSGAEVKKPGASVKVSCKASGYTFTSHWMHWVRQAPGQGLEWIGEFNPSNGRTNYNEKFKSKATMTVDTSTNTAYMELSSLRSEDTAVYYCASRDYDYAGRYFDYWGQGTLVTVSS VL: DIQMTQSPSSLSASVGDRVTITCSASSSVTYMYWYQQKPGKAPKLLIYDTSNLASGVPSRFSGSGSGTDYTFTISSLQPEDIATYYCQQWSSHIFTFGQGTKVEIK	93.1 nM and 92.6 nM	0.034 s⁻¹ and 0.031 s⁻¹	360000 M⁻¹ s⁻¹ and 340000 M⁻¹ s⁻¹
